Reference: patent US20250346644A1 (LATTICON SUZHOU BIOPHARMACEUTICALS, published 2025)
Read-outs that look alike come from different tables or passages of the source.

Experiments:
[1] = target: T1, high-affinity IL2R expressed on the surface of CTLL-2 cells; experiment: cell-based or functional assay
T1 sequence (P01590 whole entry, species assumed, looked up): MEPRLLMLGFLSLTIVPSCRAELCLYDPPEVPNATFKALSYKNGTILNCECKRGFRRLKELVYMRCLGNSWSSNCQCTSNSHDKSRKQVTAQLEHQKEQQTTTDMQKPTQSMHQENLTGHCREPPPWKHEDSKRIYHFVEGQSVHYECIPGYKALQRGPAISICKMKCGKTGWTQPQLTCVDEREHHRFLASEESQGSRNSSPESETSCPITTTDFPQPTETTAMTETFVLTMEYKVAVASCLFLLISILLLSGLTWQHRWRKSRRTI
T1 sequence (P16297 whole entry, species assumed, looked up): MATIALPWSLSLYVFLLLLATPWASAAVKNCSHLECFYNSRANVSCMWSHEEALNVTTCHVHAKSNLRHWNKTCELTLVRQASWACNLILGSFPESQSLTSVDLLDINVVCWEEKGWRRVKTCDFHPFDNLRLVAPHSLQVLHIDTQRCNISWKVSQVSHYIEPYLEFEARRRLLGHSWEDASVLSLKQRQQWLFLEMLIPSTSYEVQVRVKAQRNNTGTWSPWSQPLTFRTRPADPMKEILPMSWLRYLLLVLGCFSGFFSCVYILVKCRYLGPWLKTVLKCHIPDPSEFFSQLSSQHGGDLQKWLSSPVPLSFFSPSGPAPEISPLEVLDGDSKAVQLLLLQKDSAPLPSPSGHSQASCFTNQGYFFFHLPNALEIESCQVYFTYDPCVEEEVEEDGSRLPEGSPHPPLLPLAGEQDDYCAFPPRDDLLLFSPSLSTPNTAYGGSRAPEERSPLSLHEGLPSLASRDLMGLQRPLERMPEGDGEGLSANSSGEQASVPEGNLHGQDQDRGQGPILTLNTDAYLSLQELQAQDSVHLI
T1 sequence (P34902 whole entry, species assumed, looked up): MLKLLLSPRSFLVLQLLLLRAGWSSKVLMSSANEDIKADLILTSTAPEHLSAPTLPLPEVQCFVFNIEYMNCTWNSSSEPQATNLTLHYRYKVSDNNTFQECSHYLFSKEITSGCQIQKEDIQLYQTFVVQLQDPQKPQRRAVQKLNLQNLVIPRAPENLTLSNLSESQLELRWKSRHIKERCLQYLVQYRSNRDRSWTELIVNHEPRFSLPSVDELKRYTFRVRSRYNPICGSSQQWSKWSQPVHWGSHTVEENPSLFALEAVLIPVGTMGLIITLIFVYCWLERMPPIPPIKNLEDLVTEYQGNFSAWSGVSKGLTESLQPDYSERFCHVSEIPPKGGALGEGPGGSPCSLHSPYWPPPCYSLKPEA

hIL2Rα (hCD25) = target: T2, hIL2Rα (hCD25) (human, UniProt P01589 22-213, limits assumed); experiment: ELISA (method of section 4.2.1): sample captured on coated goat anti-human IgG, hCD25 titrated; the x axis is the CD25 concentration
T2 construct: bought recombinant protein; also called hCD25 (Acro); biotin-CD25 (Acro)
T2 sequence (looked up): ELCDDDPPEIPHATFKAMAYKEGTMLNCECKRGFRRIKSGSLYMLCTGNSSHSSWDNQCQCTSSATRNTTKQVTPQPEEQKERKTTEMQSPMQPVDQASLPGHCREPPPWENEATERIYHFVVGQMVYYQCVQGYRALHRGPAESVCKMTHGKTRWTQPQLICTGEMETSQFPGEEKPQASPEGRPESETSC

hIL2Rβ (hCD122) = target: T3, hIL2Rβ (hCD122) (human, UniProt P14784 27-239, limits assumed); experiment: ELISA (method of section 4.2.1): sample captured on coated goat anti-human IgG, hCD122 titrated; the x axis is the CD122 concentration
T3 construct: bought recombinant protein; also called hCD122 (Acro)
T3 sequence (looked up): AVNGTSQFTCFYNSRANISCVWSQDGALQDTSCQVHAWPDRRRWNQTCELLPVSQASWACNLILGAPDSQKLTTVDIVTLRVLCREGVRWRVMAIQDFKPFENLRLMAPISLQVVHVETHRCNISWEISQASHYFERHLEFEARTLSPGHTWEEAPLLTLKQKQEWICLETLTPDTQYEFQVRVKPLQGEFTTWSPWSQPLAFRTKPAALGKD

hIL2-TM-his [2] = target: T4, hIL2-TM-his (human, UniProt P60568 21-153); experiment: BLI ForteBio, Ab on Protein A sensor
T4 construct: also called hIL-2 mutein containing three point mutations K64G, N90R and M104E (with a his-tag); not shown: his-tag
T4 chain: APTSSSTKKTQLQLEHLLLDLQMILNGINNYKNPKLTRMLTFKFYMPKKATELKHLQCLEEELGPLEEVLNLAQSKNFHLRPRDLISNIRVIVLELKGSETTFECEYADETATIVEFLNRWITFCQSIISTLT

mIL2-his [3] = target: T5, mIL2-his (mouse, UniProt P04351 21-169); experiment: BLI ForteBio, Ab on Protein A sensor
T5 construct: also called wild-type mouse IL-2 (with a his-tag); not shown: his-tag
T5 sequence (looked up): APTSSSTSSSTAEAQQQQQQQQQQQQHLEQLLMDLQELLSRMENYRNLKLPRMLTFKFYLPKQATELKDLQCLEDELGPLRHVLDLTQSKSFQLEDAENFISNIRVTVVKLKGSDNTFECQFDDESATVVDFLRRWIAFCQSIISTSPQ

hIL2-DM-his = target: T6, hIL2-DM-his (human, UniProt P60568 21-153); experiment: BLI ForteBio, Ab on Protein A sensor
T6 construct: expressed in ExpiCHO-S cells, nickel-column purified; also called hIL-2 mutein containing two point mutations K64G and N90R (with a his-tag); not shown: his-tag

hIL2-TM-his [4] = target: T4, hIL2-TM-his; experiment: BLI ForteBio, Ab on Protein A sensor
Protocol: (§1) After each cycle of association and dissociation steps, the sensor was regenerated by 10 mM glycine buffer (pH 1.5) and then stated with the next cycle of detection. After the detection, the association rate constant and dissociation rate constant between the antibody and antigen were fitted and extrapolated using the analytical software, and the value of affinity constant (KD) was calculated.

mIL2-his [5] = target: T5, mIL2-his; experiment: BLI ForteBio, Ab on Protein A sensor; remark: listed apart in the source
Protocol: as §1

mIL2-his [6] = target: T5, mIL2-his; experiment: BLI ForteBio, Ab on Protein A sensor; remark: listed apart in the source
Protocol: as §1

mIL2-his [7] = target: T5, mIL2-his; experiment: ELISA, antibody captured by anti-human IgG, mIL2-his titrated
Protocol: ELISA was performed as follows: a goat anti-human IgG (Jackson Immunoresearch) was diluted to 1 μg/mL in 1×PBS and added to an ELISA plate at 100 μL/well, and then incubated at 4° C. overnight. The plate was washed with PBS and then blocked at room temperature for 1 hour after adding the blocking solution (PBST containing 1% BSA) to each well. […] The plate was washed with PBST; the HRP-labeled anti-6×His-tag secondary antibody (Proteintech) diluted at a ratio of 1:10,000 in blocking solution was then added to each well and incubated at room temperature for 1 hour. The plate was washed with PBST; the TMB chromogenic solution (Thermo) was added to each well and incubated in dark for 3-10 minutes at room temperature. The stop solution (2 M HCl) was added to each well, and OD values at a wavelength of 450-570 nm were read using a multimode microplate reader (Varioskan, Thermo).

B1: K2G11-Cy06 (other)
heavy: SSSTKKTQLQLEHLLLDLQMILNGINNYKNPKLTRMLTFKFYMPKKATELKHLQCLEEELGPLEEVLNLAQSKNFHLRPRDLISNIRVIVLELKGSETCFMCEYADETATIVEFLNRWITFLQSIISTLTGGGGSGGGGSGGGGSGGGGSQVQLVQSGAEVKKPGATVKISCKVSGDTITAYYMHWVRQAPGQGLEWIGRIDPDDDSTKYAENFKGRVTITADTSTDTAYMELSSLRSEDTAVYYCTTITFLYSRELRWFAYWGQGTLVTVSS
VL: DIVLTQSPATLSLSPGERATLSCQASQYISNYLSWYQQKPGQAPRLLIYSATSLASGIPARFSGSRSCTDFTLTISSLEPEDFAVYYCLQHYSTPYTFGQGTKLEIK
notes: hIL2-DM (Δ3, C125L) fused to the heavy chain of K2G11, disulfide IL:102-L:68
For B1, the “Activity in Promoting CTLL-2 Cell Proliferation (EC50, nM)” value [1] was 5.77 nM, the binding result (hIL2Rα (hCD25)) was “no binding (tested: 10 µg/mL)” and the binding result (hIL2Rβ (hCD122)) was “binds”.

B2: hS4B6-H6K3(H) (antibody, V domains shown)
VH: QVQLVQSGAEVKKPGATVKISCKVSGDTITAYYMHWVRQAPGQGLEWIGRIDPEDDSTKYAENFKGRVTITADTSTDTAYMELSSLRSEDTAVYYCTTVTFYYSRELRWFAYWGQGTLVTVSS
VL: DIVLTQSPATLSLSPGERATLSCQASQDIGNYLSWYQQKPGQAPRLLIYSATSLASGIPARFSGSRSGTDFTLTISSLEPEDFAVYYCLQHYSTPYTFGQGTKLEIK
notes: H6K3 with L34M, N65G, N76D (heavy) and D56S, Y71F (light)
B2 gave a Kd (hIL2-TM-his [2]) of 9.88 nM, a koff (hIL2-TM-his [2]) of 0.0027 s⁻¹ and a kon (hIL2-TM-his [2]) of 274000 M⁻¹ s⁻¹. It also gave a Kd (mIL2-his [3]) of 0.254 nM, a koff (mIL2-his [3]) of 0.000236 s⁻¹ and a kon (mIL2-his [3]) of 928000 M⁻¹ s⁻¹.

B3: S4B6 chimeric antibody (antibody, human IgG1, V domains shown)
VH: EVQLQESGAELVRPGTSVKLSCKVSGDTITAYYLHFVRQRPGQGLEWIGRIDPEDDSTKYAENFKNKATFTADASSNTAYLRLSSLTSEDTATYFCTTVTFYYSRELRWFAYWGQGTLVTVSS
VL: DIQVTQSPASLSASLEEIVTITCQASQDIGNYLSWYQQKLGKSPQLLIHSATSLADGVPSRFSGSRSGTQYSLKINRLQVEDTGIYYCLQHYSTPYTFGAGTKLELK
notes: also called chS4B6
For B3, the Kd (hIL2-DM-his) was 39.4 nM, the koff (hIL2-DM-his) was 0.0106 s⁻¹ and the kon (hIL2-DM-his) was 269000 M⁻¹ s⁻¹. For the same binder, the Kd (hIL2-TM-his [4]) was 22.6 nM, the koff (hIL2-TM-his [4]) was 0.00476 s⁻¹ and the kon (hIL2-TM-his [4]) was 210000 M⁻¹ s⁻¹. For the same binder, the Kd (mIL2-his [5]) was 0.996 nM, the koff (mIL2-his [5]) was 0.000182 s⁻¹ and the kon (mIL2-his [5]) was 183000 M⁻¹ s⁻¹. It also gave a Kd (mIL2-his [6]) of 0.996 nM, a koff (mIL2-his [6]) of 0.000182 s⁻¹ and a kon (mIL2-his [6]) of 183000 M⁻¹ s⁻¹. The EC50 (mIL2-his [7]) was 0.0139 µg/mL.
